According to the supplement of paper PMC7877785:
± gives the uncertainty stated by the source.

Experiment: self-splicing fitness, log relative to wild type (ln ratio); higher = more splicing; Tetrahymena group I intron in knt gene, E. coli kanamycin selection, DiMSum; sequences stand for … in CUCUCU…GGAGGGAAAAGUUAUCAGGCAUGCACCUGGUAGCUAGUCUUUAAACCAAUAGAUUGCAUCGGUUUAAAAGGCAAGACCGUCAAAUUGCGGGAAAGGGGUCAACAGCCGUUCAGUACCAAGUCUCAGGGGAAACUUUGAGAUGGCCUUGCAAAGGGUAUGGUAAUAAGCUGACGGACAUGGUCCUAACCACGCAGCCAAGUCCUAAGUCAACAGAUCUUCUGUUGAUAUGGAUGCAGUUCACAGACUAAAUGUCGGUCGGGGAAGAUGUAUUCUUCUCAUAAGAUAUAGUCGGACCUCUCCUUAAUGGGAGCUAGCGGAUGAAGUGAUGCAACACUGGAGCCGCUGGGAACUAAUUUGUAUGCGAAAGUAUAUUGAUUAGUUUUGGAGUACUCGUGGUCG
Outline: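 Colonies from six replicate transformations of E. coli BL21(DE3) were pooled and amplicon-sequenced on an Illumina HiSeq 2500. The library placed an intron with all eight P1ex-region nucleotides randomised inside the knt kanamycin-resistance gene on pET-22b(+), and cells grew overnight at 37°C or 30°C on LB agar with or without 25 μg/mL kanamycin (plus 100 μg/mL carbenicillin, 50 μM IPTG, 0.2% rhamnose). Fitness is the DiMSum error-weighted combination of wild-type-normalised replicate fold changes, kanamycin versus none.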

Sequence	self-splicing fitness (ln) (30 °C)	self-splicing fitness (ln) (37 °C)
AGAUAGCAAUAUUACGUGGG	-2.85 ± 0.15	-2.49 ± 0.19
UAUGAGCAAUAUUACGUGUC	-3.77 ± 0.28	-3.2 ± 0.4
AAUUAGCAAUAUUACGCUCC	-1.09 ± 0.36	-0.0599 ± 0.35
UAGGAGCAAUAUUACGAGAC	-2.26 ± 0.29	–
UCCUAGCAAUAUUACGACGG	-2.14 ± 0.13	-0.657 ± 0.14
AAGGAGCAAUAUUACGCGGU	-3.56 ± 0.26	-1.37 ± 0.26
AGAAAGCAAUAUUACGCACA	-0.139 ± 0.1	-0.236 ± 0.12
GAGGAGCAAUAUUACGAUUG	–	-1.93 ± 0.29
AGAGAGCAAUAUUACGUGGA	-3.15 ± 0.4	-2.3 ± 0.5
UAACAGCAAUAUUACGGUCA	-0.282 ± 0.073	0.714 ± 0.085
UUUAAGCAAUAUUACGAACA	-0.6 ± 0.17	-0.353 ± 0.19
UACGAGCAAUAUUACGAUUA	-1.13 ± 0.14	-0.74 ± 0.12
ACAUAGCAAUAUUACGCCCG	-0.76 ± 0.16	-0.298 ± 0.15
CGCGAGCAAUAUUACGCGGU	-3.56 ± 0.3	-2.79 ± 0.18
UCUUAGCAAUAUUACGGUAU	-4.43 ± 0.39	-2.85 ± 0.29
ACUGAGCAAUAUUACGCGUU	-3.38 ± 0.17	-1.51 ± 0.13
GUCCAGCAAUAUUACGAUGA	-1.49 ± 0.084	-0.996 ± 0.092
GAGAAGCAAUAUUACGAAGU	-2.98 ± 0.24	-1.16 ± 0.27
AUAGAGCAAUAUUACGUGCU	-1.24 ± 0.25	–
CGUAAGCAAUAUUACGCUUA	-3.67 ± 0.37	-2.91 ± 0.23

Sequence	self-splicing fitness (ln) (30 °C)	self-splicing fitness (ln) (37 °C)
AGACAGCAAUAUUACGUUCU	-3.7 ± 0.18	-3.16 ± 0.21
CUCGAGCAAUAUUACGCGUG	-3.43 ± 0.26	-2.03 ± 0.19
AAGAAGCAAUAUUACGUCAA	-1.78 ± 0.11	-0.843 ± 0.088
CUCCAGCAAUAUUACGAUCG	-1.49 ± 0.063	-0.922 ± 0.075
ACAUAGCAAUAUUACGUAUU	-4.38 ± 0.21	-2.78 ± 0.23
CCCCAGCAAUAUUACGAUCU	-3.24 ± 0.13	-3.06 ± 0.22
GAACAGCAAUAUUACGUCAC	-3.44 ± 0.23	-0.689 ± 0.17
AUUUAGCAAUAUUACGAGGU	-3.21 ± 0.39	-1.91 ± 0.42
ACGAAGCAAUAUUACGUAAU	-2.57 ± 0.087	-1.23 ± 0.088
GGACAGCAAUAUUACGGAAC	-0.76 ± 0.1	-0.102 ± 0.11
CGAAAGCAAUAUUACGACCG	-0.423 ± 0.12	-0.183 ± 0.15
CAAUAGCAAUAUUACGUAGA	-3.48 ± 0.16	-2.37 ± 0.17
CAUUAGCAAUAUUACGCGGA	-2.93 ± 0.23	-1 ± 0.14
UUGAAGCAAUAUUACGGCAA	0.615 ± 0.092	0.402 ± 0.12
CAACAGCAAUAUUACGGAUG	-2.53 ± 0.074	-0.732 ± 0.068
AGUCAGCAAUAUUACGGAAC	-2.87 ± 0.15	-1.89 ± 0.15
GGAUAGCAAUAUUACGCGCU	-2.14 ± 0.23	-0.904 ± 0.23
CAAAAGCAAUAUUACGCUAU	-2.78 ± 0.16	-2.09 ± 0.19
GUCGAGCAAUAUUACGUAGC	-1.18 ± 0.16	-0.606 ± 0.22
